Measurements: US20210054084A1 (published 2021)

Target: T1, recombinant human CD25 his tagged (UniProt P01589 22-213)
T1 chain: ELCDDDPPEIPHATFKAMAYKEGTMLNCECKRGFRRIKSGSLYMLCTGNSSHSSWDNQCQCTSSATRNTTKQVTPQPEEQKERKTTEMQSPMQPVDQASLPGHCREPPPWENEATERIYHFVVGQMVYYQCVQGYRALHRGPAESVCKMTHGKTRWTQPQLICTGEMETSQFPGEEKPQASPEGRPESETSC
Assay: BLI (Octet)

B1: Antibody 1 as human IgG1 expressed in mammalian cells (antibody, V domains shown)
VH: EVQLVESGGGLIQPGGSLRLSCAASGFTLDSYGVSWVRQAPGKGLEWVGVTSSGGSAYYADSVKGRFTISRDNSKNTLYLQMNSLRAEDTAVYYCARDRYVYTGGYLYHYGMDLWGQGTLVTVSS
VL: DIQMTQSPSSLSASVGDRVTITCRASQSISDYLAWYQQKPGKVPKLLIYAASTLPFGVPSRFSGSGSGTDFTLTISSLQPEDVATYYCQGTYDSSDWYWAFGGGTKVEIK
Kd: 0.8 nM
